Assays:
Assay in all cases: Selectivity ELISA of humanized antibodies for human Eph receptor
Assay type in all cases: binding
human EphA10 = target: T1, human EphA10 (Homo sapiens, UniProt Q5JZY3); conditions: coated protein 1 nM
T1 construct: a protein of the extracellular region of each human Eph receptor fused with the SEAP protein and the His tag; made in house; host or cells: Expi293F cells (culture supernatant)
T1 sequence (Q5JZY3 34-565 limits assumed): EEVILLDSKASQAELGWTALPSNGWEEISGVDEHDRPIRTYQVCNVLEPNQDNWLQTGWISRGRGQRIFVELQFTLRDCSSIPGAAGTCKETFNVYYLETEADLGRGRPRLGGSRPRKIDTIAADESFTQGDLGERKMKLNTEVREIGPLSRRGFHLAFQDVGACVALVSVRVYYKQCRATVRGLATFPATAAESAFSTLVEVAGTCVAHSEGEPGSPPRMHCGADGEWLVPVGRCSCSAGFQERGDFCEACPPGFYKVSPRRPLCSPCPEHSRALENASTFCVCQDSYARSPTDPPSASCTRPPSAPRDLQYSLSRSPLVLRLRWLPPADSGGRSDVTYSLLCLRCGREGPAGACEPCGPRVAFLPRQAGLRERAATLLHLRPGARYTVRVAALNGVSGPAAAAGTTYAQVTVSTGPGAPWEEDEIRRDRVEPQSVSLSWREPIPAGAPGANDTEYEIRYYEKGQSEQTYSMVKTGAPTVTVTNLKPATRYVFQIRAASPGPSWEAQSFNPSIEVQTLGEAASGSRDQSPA
Method in brief: (§1)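 Read-out is A450 after TMB development stopped with 1N H2SO4. Plates bore anti-His-captured human Eph extracellular region-SEAP-His proteins at 1 nM final, made in Expi293F cells. Humanized antibody binding ran 1 h at room temperature before HRP-labeled anti-IgG detection.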

human EphB4 = target: T2, human EphB4 (Homo sapiens, UniProt P54760); conditions: coated protein 1 nM
T2 construct: a protein of the extracellular region of each human Eph receptor fused with the SEAP protein and the His tag; made in house; host or cells: Expi293F cells
T2 sequence (P54760 16-539 limits assumed): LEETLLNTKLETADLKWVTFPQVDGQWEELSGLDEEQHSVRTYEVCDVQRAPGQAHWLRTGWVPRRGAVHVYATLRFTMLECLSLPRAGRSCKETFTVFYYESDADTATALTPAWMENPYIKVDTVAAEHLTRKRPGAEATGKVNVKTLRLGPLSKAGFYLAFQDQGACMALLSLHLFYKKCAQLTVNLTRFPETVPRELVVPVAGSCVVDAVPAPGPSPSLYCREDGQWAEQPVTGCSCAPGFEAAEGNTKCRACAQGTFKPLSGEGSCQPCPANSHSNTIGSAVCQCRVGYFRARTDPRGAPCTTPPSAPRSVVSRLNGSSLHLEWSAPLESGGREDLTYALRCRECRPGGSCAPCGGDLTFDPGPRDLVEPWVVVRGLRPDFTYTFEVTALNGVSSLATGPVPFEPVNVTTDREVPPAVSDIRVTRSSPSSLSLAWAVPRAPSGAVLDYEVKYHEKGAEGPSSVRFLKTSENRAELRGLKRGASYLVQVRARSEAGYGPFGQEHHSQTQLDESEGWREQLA
Method in brief: as §1

human EphA4 = target: T3, human EphA4 (Homo sapiens, UniProt P54764); conditions: coated protein 1 nM; reference set to 100%
T3 construct: made in house; not restated for the human SEAP-His protein
T3 sequence (P54764 20-547): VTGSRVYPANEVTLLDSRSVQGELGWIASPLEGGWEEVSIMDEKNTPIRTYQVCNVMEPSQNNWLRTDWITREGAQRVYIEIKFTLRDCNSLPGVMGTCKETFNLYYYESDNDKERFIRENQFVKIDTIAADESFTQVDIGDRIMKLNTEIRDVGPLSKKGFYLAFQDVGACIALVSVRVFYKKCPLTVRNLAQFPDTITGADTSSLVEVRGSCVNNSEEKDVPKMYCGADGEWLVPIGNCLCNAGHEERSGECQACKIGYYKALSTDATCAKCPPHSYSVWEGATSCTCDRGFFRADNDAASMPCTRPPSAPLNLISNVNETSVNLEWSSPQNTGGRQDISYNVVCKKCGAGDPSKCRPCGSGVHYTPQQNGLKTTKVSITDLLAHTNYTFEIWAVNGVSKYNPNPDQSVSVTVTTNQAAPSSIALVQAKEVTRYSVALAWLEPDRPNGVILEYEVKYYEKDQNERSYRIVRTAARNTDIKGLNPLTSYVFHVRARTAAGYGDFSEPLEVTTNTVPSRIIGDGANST
Method in brief: as §1

human EphA3 = target: T4, human EphA3 (Homo sapiens, UniProt P29320); conditions: coated protein 1 nM
T4 construct: a protein of the extracellular region of each human Eph receptor fused with the SEAP protein and the His tag; made in house; host or cells: Expi293F cells (culture supernatant)
T4 sequence (P29320 21-541 limits assumed): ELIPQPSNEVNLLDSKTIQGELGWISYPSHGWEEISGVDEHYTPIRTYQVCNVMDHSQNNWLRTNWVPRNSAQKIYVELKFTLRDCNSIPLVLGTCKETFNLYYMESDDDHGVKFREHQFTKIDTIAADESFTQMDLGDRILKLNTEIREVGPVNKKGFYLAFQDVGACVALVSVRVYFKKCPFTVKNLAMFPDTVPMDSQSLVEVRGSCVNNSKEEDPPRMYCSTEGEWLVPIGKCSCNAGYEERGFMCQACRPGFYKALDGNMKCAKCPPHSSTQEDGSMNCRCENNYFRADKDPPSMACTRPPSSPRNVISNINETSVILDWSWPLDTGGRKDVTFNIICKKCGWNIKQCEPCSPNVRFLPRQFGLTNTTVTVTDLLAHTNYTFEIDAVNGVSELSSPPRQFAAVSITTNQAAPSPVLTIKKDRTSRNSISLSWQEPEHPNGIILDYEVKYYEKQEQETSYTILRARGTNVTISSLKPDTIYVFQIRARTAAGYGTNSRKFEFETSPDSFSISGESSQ
Method in brief: as §1

- hEphA10-SEAP-: absorbance at 450 nm, percentage with respect to hEphA4-SEAP-His as 100% (human EphA10): 5.2%
- hEphB4-SEAP-: absorbance at 450 nm, percentage with respect to hEphA4-SEAP-His as 100% (human EphB4): 5.2%
- hEphA4-SEAP-: absorbance at 450 nm, percentage with respect to hEphA4-SEAP-His as 100% (human EphA4): 100%
- hEphA3-SEAP-: absorbance at 450 nm, percentage with respect to hEphA4-SEAP-His as 100% (human EphA3): 5.2%
B1: 136 (antibody, V domains shown)
VH: QVQLVQSGSELKKPGASVKVSCKASGYTFTDYSMHWVRQAPGQGLKWMGWINTETGEPTYADDFKGRFVFSLDTSVSTAYLQISSLKAEDTAVYYCARIPLYYYGSRYWYFDVWGQGTTVTVSS
VL: EIVMTQSPATLSVSPGERATLSCRASENIYRNLAWYQQKPGQSPRLLIYAATNLADGIPARFSGSGSGTEYTLTISSLQSEDFAVYYCQHFWGTPWTFGQGTKVEIK
modifications: synthetic humanized antibody heavy chain variable region sequence; synthetic humanized antibody light chain variable region sequence

Source: patent US10428140B2, “Anti-EphA4 antibody” (EISAI R&D MANAGEMENT CO., LTD., priority 2015, dated 2019)
